According to US7432342B2, “Kinase anchor protein muteins, peptides thereof and related documents” (Sequenom, Inc., priority 2002, dated 2008):
Ends that are not written are not given here.

Experiments:
[1] = target: RIα isoform of PKA (Bos taurus, UniProt P00514); assay: In vitro pull-down assay of GST-fused AKB domain variants (Example 1); format: binding; conditions: GST fusion of 40 C-terminal residues of D-AKAP2; RIα 20 μM; mouse and human AKB domains
Description: Binding of each AKB domain variant to PKA was first examined using an in vitro pull-down assay, in which the 40 C-terminal residues of D-AKAP2 (amino acids 623-662 of SEQ ID NO:64) containing the AKB were fused to glutathione-S-transferase (GST). The GST fusion constructs were made by fusing the 40 C-terminal amino acids of D-AKAP2 to the C-terminus of GST and subcloning between the NdeI and BamHI sites of pRSET (Invitrogen, Carlsbad, Calif.). The constructs were transfected into BL21 cells and expressed for 6 hours at 20° C. The cells were lysed in PBS with 5 mM BME and 0.1% Triton X-100. 3 μl of supernatant were added to 200 μl of this buffer and 10 μl glutathione beads. After three washes, RIα (53 μg, 20 μM) and RIIα (2.4 μg, 2 μM) were added to the beads, respectively, and the total volume was adjusted to 40 μl. After incubating for 30 min at 4° C., the beads were washed three times, and separated in a 10% acrylamide gel.

[2] = target: T1, RIα-D/D-GFP (Bos taurus, UniProt P00514); assay: Co-localization of PKA regulatory domain with mitochondria-targeted AKB domain in 10T(1/2) cells (Example 3); format: cell-based; conditions: C-terminal 156 residues of D-AKAP2 fused to D-AKAP1 mitochondrial anchoring domain
T1 construct: The dimerization/docking (D/D) domain of RIα and full-length RIIα were each fused with green fluorescent protein (GFP); expressed in transfected cells; host or cells: 10T(1/2) cells
Description: The 30 amino acid mitochondrial anchoring domain of D-AKAP1 (Chen et al. (1997) J. Biol. Chem., 272:15247-57; and Huang et al. (1997) J. Biol. Chem., 272:8057-8064) was fused to the C-terminal 156 residues of mouse (amino acids 217-372 of SEQ ID NO:55) and human (amino acids 507-662 of SEQ ID NO:64) D-AKAP2, respectively, followed by a Flag-tag and subcloned into pcDNA4 (Invitrogen, Carlsbad, Calif.). The dimerization/docking (D/D) domain of RIα and full-length RIIα were each fused with green fluorescent protein (GFP) and cloned into pEGFPN1 (Clontech, Palo Alto, Calif.). […] The AKB domain was detected by immuno-staining with monoclonal antibodies against the Flag-tag (Kodak, Rochester, N.Y.) followed by rhodamine-conjugated secondary antibody (Jackson Lab, Bar Harbor, Me.). […]
In this assay, the AKB domain within the C-terminal 156 residues of D-AKAP2 from mouse (Val) and human (Ile) was fused to the mitochondrial anchoring domain from D-AKAP1 and tethered to the outer mitochondrial membrane (Chen et al. (1997) J. Biol. Chem., 272:15247-15257; and Huang et al. (1997) J. Biol. Chem., 272:8057-8064). The binding of the AKB domain with the PKA regulatory domains was detected as the co-transfected PKA regulatory domains co-localized to the mitochondria. […]

[3] = target: RIα (Bos taurus, UniProt P00514); assay: Fluorescence anisotropy binding of labeled 27-mer AKB Ile/Val peptides (Example 2); conditions: in vitro; 10 nM labeled peptide
Protocol: To assess the magnitude of the affinity difference, binding of both Ile/Val variants to the R-subunit isoforms of PKA was analyzed in a quantitative assay. Twenty-seven residue peptides containing the two AKB domain Ile/Val variants (SEQ ID NOs:1 and 2, respectively) of D-AKAP2 with a C-terminal cysteine were synthesized by SynPep Corporation (Dublin, Calif.). The peptides were HPLC (high performance liquid chromatography) purified and mass spectrometry checked. Both peptides were labeled with tetramethyl rhodamine-5-maleiamide (Molecular Probes, Eugene, Oreg.) at the cysteine residue and HPLC purified. Increasing concentrations of RIα and RIIβ, respectively, were equilibrated with 10 nM of peptide for at least one hour at room temperature in 10 mM HEPES, 150 mM NaCl, 3 mM EDTA, 0.005% polysorbate 20. […] Fluorescence anisotropy was monitored using a Fluoromax-2 (Spex, Jobin Yvon Horiba, Edison, N.J.) equipped with polarizers. The fluorophore was excited at 541 nm (5-10 nm bandpass) and emission was monitored at 575 nm (5-10 nm bandpass). […]
Peptides of each AKB Ile/Val variant (SEQ ID NOs:1 and 2) were synthesized and fluorescence-labeled. Binding of the labeled peptides to the regulatory subunit isoforms was monitored using a fluorescence assay in which binding of the peptide was proportional to an increase in steady state anisotropy. […]

[4] = target: PKA-RIIα-GFP (Mus musculus, UniProt P12367); assay: ELISA of biotinylated 27-mer peptide immobilized on neutravidin plates; format: binding; conditions: 25 μM peptide on neutravidin; 0-5 μg/ml PKA-RIIα-GFP
Protocol: The peptide biotin-bA-bA-[…] (SEQ ID NO:14) was synthesized as a C-terminal amide in milligram quantity and purified to a 96% purity by HPLC. Its identity was confirmed by MALDI TOF (matrix-assisted laser desorption ionization time-of-flight) mass spectrometry. The peptide was immobilized in neutravidin (NA)-coated 96-well microtiter plates and incubated with various concentrations of PKA-RIIα-GFP. Binding was detected using an anti-GFP antibody (3E6, Quantum Biotechnologies, QBiogene, Carlsbad, Calif.) in combination with a second horseradish peroxidase labeled antibody. Microtiterplates were coated with 40 μg/ml Neutravidin (NA) and subsequently incubated with 25 μM peptide. Various concentrations (0-5 μg/ml) of PKA-RIIα-GFP were added. Bound subunit was detected using a mouse anti-GFP antibody (1 μg/ml) and an anti-mouse-IgG-antibody labeled with peroxidase (1 μg/ml). Negative controls were utilized that contained either a microtiter plate with only neutravidine or only peptide, or neither one.

T1 sequence (P00514 2-135 limits assumed): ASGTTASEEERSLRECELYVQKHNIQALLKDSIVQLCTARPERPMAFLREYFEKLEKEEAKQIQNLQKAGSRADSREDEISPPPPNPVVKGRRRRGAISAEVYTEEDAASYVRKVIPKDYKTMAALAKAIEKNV
Chain of PKA-RIIα-GFP (P12367 1-46): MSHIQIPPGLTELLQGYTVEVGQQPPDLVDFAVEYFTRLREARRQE
Chain of RIα isoform of PKA (P00514 whole entry, the tested form may be a part, canonical isoform): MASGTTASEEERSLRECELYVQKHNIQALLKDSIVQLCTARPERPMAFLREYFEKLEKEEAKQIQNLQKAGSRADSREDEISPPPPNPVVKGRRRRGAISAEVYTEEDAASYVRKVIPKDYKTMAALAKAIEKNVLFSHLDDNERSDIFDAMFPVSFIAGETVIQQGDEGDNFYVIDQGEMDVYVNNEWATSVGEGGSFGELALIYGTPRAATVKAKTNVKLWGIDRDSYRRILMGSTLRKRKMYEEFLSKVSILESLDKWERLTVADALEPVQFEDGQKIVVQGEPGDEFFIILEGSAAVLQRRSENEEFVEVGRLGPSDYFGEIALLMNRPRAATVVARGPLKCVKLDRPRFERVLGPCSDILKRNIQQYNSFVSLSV
Chain of RIα (P00514 whole entry, the tested form may be a part, canonical isoform): as above

For “Val variant: D-AKAP2 AKB domain with Val at amino acid 646 (SEQ ID NO:65), tested as GST fusion or mitochondria-targeted fusion construct (VQGNTDEAQEELAWKIAKMIVSDVMQQAQYDQPLEKSTKL; not fully specified)”, the “binding of the RIα isoform of PKA to the AKB variant” value [1] was “significantly higher affinity”, the “targeting of RIα to the mitochondria” value [2] was “effectively targeted RIα to the mitochondria” and the “binding affinity to RIα compared to the Ile variant” value [3] was “three-fold tighter”.

In the case of “biotin-bA-bA-VQGNTDEAQEELAWKIAKMIVSDIMQQ [SEQ ID NO:14]”, the “binding to PKA-RIIα in ELISA” value [4] is reported as “able to bind to PKA-RIIα”.
